Data published in US20030147861A1, “Compounds and methods for the modulation of immune responses” (Genesis Research and Development Corporation Limited, priority 2001, published 2003).

Assays:
[1] = test system: MAP kinase signaling pathway in THP-1 cells (IL-10 production); experiment: AVAC-induced IL-10 production by THP-1 cells pre-treated with MAP kinase inhibitors (ELISA); format: cell-based, human; settings: inhibitor pre-treatment 120 minutes; 25 μg/mL AVAC, 24 hours
Procedure: The involvement of the MAP kinase signaling pathway in the production of IL-10 by THP-1 cells in response to AVAC was assessed as follows.
Prior to culture with AVAC, 50 μL of THP-1 cells in cRPMI-10 were pre-treated in duplicate microplate wells with 50 μL of serially diluted PD98059 (Calbiochem cat. no. 51300, a selective inhibitor of MAP kinase), SB202190 (Calbiochem cat. no. 559388, an inhibitor of p38 MAP kinase and p38β MAP kinase), SB203580 (Calbiochem cat. no. 559389, a highly specific inhibitor of p38 MAP kinase), with SB202474 (Calbiochem cat. no. 559387, a negative control for MAP kinase inhibition studies), or with no added chemicals. MAP kinase inhibitors and control were used at a final concentration of 100 μg/mL, 20 μg/mL, 4.0 μg/mL, 0.8 μg/mL, 0.16 μg/mL, or […]. Pretreatment of cells with MAP kinase inhibitors and control was for 120 minutes in a water-jacketed, humidified incubator at 37° C. supplied with 5% CO2 in air.
Following pretreatment, the cells were washed once in cPRMI-10 to remove inhibitor or control chemicals. […] IL-10 content in the microculture supernatants was determined by sandwich ELISA using a commercially available set (eBioscience cat. no. 88-7106-77,) according to the manufacturer's recommendations. […]

[2] = test system: CD69 on αβT cells, γδT cells and NK cells; format: cell-based, human
[3] = test system: CD40, CD80 and CD86 on dendritic cells; format: cell-based, human
[4] = test system: popliteal lymph node cells; experiment: Proliferation of lymph node cells from GV protein-immunized mice; format: cell-based, female BALB/cByJ mice; settings: lymph node cells of mice immunized with 10 μg of the same GV protein in IFA
Procedure: (§1) The immunogenicity of Mycobacterium vaccae recombinant proteins (referred to herein as GV recombinant proteins) was tested by injecting female BALB/cByJ mice in each hind foot-pad with 10 μg of recombinant GV proteins emulsified in incomplete Freund's adjuvant (IFA). Control mice received phosphate buffered saline in IFA. The draining popliteal lymph nodes were excised 10 days later and the cells obtained therefrom were stimulated with the immunizing GV protein and assayed for proliferation by measuring the uptake of tritiated thymidine. The amount of interferon gamma (IFNγ) produced and secreted by these cells into the culture supernatants was assayed by standard enzyme-linked immunoassay.

[5] = test system: IL-1β, TNF-α, IL-12 and IFN-γ production in PBMC; experiment: Cytokine production in PBMC from normal donors (ELISA); format: cell-based, human
[6] = test system: CD40, CD80 and CD86 on monocytes; experiment: CD40, CD80 and CD86 expression on monocytes (3 color flow cytometry); format: cell-based, human; settings: 20 ug/ml, 48 hours, vs non-stimulated cells
Source text: (§2) Stimulated cells were harvested and analyzed for up-regulation of CD40, CD80 and CD86 using 3 color flow cytometric analysis. Tables 16, 17 and 18 show the fold increase in mean fluorescence intensity from control (non-stimulated cells) for dendritic cells, monocytes, and B cells, respectively.

[7] = test system: CD40, CD80 and CD86 on B cells; experiment: CD40, CD80 and CD86 expression on B cells (3 color flow cytometry); format: cell-based, human; settings: 20 ug/ml, 48 hours, vs non-stimulated cells
Source text: as §2

[8] = test system: IFNγ production by lymph node cells; experiment: IFNγ production by lymph node cells from GV protein-immunized mice (enzyme-linked immunoassay); format: cell-based, female BALB/cByJ mice; settings: lymph node cells of mice immunized with the same GV protein
Procedure: as §1

[9] = Dose of GV protein used in vitro 0.08 μg/ml
[10] = Dose of GV protein used in vitro 2 μg/ml
[11] = Dose of GV protein used in vitro 50 μg/ml
[12] = dendritic cells, 20 ug/ml, 48 hours, vs non-stimulated cells

For `Oc1ccc(-c2nc(-c3ccncc3)c(-c3ccc(F)cc3)[nH]2)cc1` [SB202190], which “suppression of AVAC-induced production of IL-10 by THP-1 cells” value [1] is on record?
The value was “substantially suppressed in a dose-dependent manner”.

How did the “suppression of AVAC-induced production of IL-10 by THP-1 cells” value [1] turn out when `C[S+]([O-])c1ccc(-c2nc(-c3ccncc3)c(-c3ccc(F)cc3)[nH]2)cc1` (stereo not drawn) [SB203580] was run?
Its value is “substantially suppressed in a dose-dependent manner”.

What does the source list for cholera toxin [reference compound]?
CD69 expression on NK cells, comparison with adjuvants [2]: did not; CD40, CD80 and CD86 expression in dendritic cells, comparison with adjuvants [3]: modest

B1: GV-45: recombinant M. vaccae antigen, amino acid sequence SEQ ID NO: 52 (protein, listed as Mycobacterium vaccae)
chain: MNKAELIDVLTEKLGSDRRQATAAVENVVDTIVRAVHKGESVTITGFGVFEQRRRAARVARNPRTGETVKVKPTSVPAFRPGAQFKAVVSGAQKLPAEGPAVKRGVTATSTARKAAKKAPAKKAAAKKAAPAKKAPAKKAATKAAPAKKATAAKKAAPAKKATAAKKAAPAKKAPAKKAATKAAPAKKAPAKKAATKAAPAKKAPAAKKAPAKKAPAKRGGRK
Which “Proliferation (cpm)” value [4, 9] does the source give for B1 here?
The value was 1,497 ± 199 cpm.

And the “Proliferation (cpm)” value [4, 10]?
The value was 3,683 ± 1,127 cpm.

What about the “Proliferation (cpm)” value [4, 11] of the same molecule?
The value was 9,554 ± 482 cpm.

And the “percentage of αβT cells expressing CD69” value ([2]; PBMC from normal donors, 20 ug/ml, 24 hours, control 3.8)?
Its value is 11.7%.

And the “percentage of NK cells expressing CD69” value ([2]; PBMC from normal donors, 20 ug/ml, 24 hours, control 4.8)?
The value was 6.3%.

And the “percentage of γδT cells expressing CD69” value ([2]; PBMC from normal donors, 20 ug/ml, 24 hours, control 6.2)?
The value was 4.9%.

And the “production of IL-1β, TNF-α, IL-12 and IFN-γ by PBMC” value [5]?
The value was “stimulate the production of IL-1β, TNF-α and IL-12”.

And the “CD40, CD80 and CD86 expression on dendritic cells” value ([3]; 20 ug/ml, 48 hours, T cell-depleted PBMC)?
The value was “highest levels of expression”.

And the “CD40 expression, fold increase in mean fluorescence intensity from control” value (“CD40 expression, fold increase” for short) [3, 12]?
Its value is 5.8 fold.

What about the “CD80 expression, fold increase in mean fluorescence intensity from control” value (shortened to “CD80 expression, fold increase”) [3, 12] of the same molecule?
The value was 3.0 fold.

What about the “CD86 expression, fold increase in mean fluorescence intensity from control” value (“CD86 expression, fold increase” below) [3, 12] of the same molecule?
The value was 3.1 fold.

What about the “CD40 expression, fold increase” value [6] of the same molecule?
The value was 1.6 fold.

What about the “CD80 expression, fold increase” value [6] of the same molecule?
The value was 1.2 fold.

And the “CD86 expression, fold increase” value [6]?
Its value is 1.0 fold.

And the “CD40 expression, fold increase” value [7]?
The value was 1.2 fold.

What about the “CD80 expression, fold increase” value [7] of the same molecule?
The value was 1.1 fold.

And the “CD86 expression, fold increase” value [7]?
The value was 1.3 fold.

B2: GV-33: recombinant M. vaccae antigen, amino acid sequence SEQ ID NO: 44 (protein, listed as Mycobacterium vaccae)
chain: MVRAALRYGFGTASLLAGGFVLRALQGTPAALGATPGEVAPVARRSPNYRDGKFVNLEPPSGITMDRDLQRMLLRDLANAASQGKPPGPIPLAEPPKGDPTPAPAAASWYGHSSVLIEVDGYRVLADPVWSNRCSPSRAVGPQRMHDVPVPLEALPAVDAVVISHDHYDHLDIDTIVALAHTQRAPFVVPLGIGAHLRKWGVPEARIVELDWHEAHRIDDLTLVCTPARHFSGRLFSRDSTLWASWVVTGSSHKAFFGGDTGYTKSFAEIGDEYGPFDLTLLPIGAYHPAFADIHMNPEEAVRAHLDLTEVDNSLMVPIHWATFRLAPHPWSEPAERLLTAADAERVRLTVPIPGQRVDPESTFDPWWRF
For B2, which “Proliferation (cpm)” value [4, 9] is on record?
The value was 8,764 ± 256 cpm.

What about the “Proliferation (cpm)” value [4, 10] of the same molecule?
The value was 27,529 ± 1,238 cpm.

And the “Proliferation (cpm)” value [4, 11]?
Its value is 41,529 ± 1,919 cpm.

What about the “IFNγ” value [8, 10] of the same molecule?
Its value is 1.52 ± 0.24 ng/mL.

What about the “IFNγ” value ([8]; Dose of GV protein used in vitro 10 μg/ml) of the same molecule?
The value was 8.44 ± 2.35 ng/mL.

What about the “IFNγ” value [8, 11] of the same molecule?
The value was 7.71 ± 0.26 ng/mL.

B3: GV-35: recombinant M. vaccae antigen, amino acid sequence SEQ ID NO: 45 (protein, listed as Mycobacterium vaccae)
chain: MKANHSGCYKSAGPIWSHPSPLCSPALAPSHAGLDNELSLGVHGQGPEHLTIQQWDTFLNGVFPLDRNRLTREWFHSGKATYVVAGEGADEFEGTLELGYHVGFPWSLGVGINFSYTTPNITYDGYGLNFADPLLGFGDSIVTPPLFPGVSITADLGNGPGIQEVATFSVDVAGPGGSVVVSNAHGTVTGAAGGVLLRPFARLISSTGDSVTTYGAPLKHELTTSRWRPPGVNRGPLHAGREAPEVRSKWPTAANACARDSSSLTQGLVVVECHPVTPPHRPRRDGRGSGVWAPALGTYGGDRRRDVTSVAVFAGNPDGPAESPHPSSEPGGSKEF
How did the “Proliferation (cpm)” value [4, 9] turn out when B3 was run?
The value was 1,626 ± 406 cpm.

What about the “Proliferation (cpm)” value [4, 10] of the same molecule?
The value was 9,968 ± 314 cpm.

And the “Proliferation (cpm)” value [4, 11]?
Its value is 29,163 ± 2,693 cpm.
